Measured values: PMC10397247
One block for each binder: values may come before it.

How the values were obtained:
Test in all cases: two-hybrid library CCmax;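 further: natural log of median RNA to DNA barcode read ratio; higher means stronger binding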
4H2330-AA = target: T1, 4H2330-AA; conditions: mean of both orientations
T1 chain: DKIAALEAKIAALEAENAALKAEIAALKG

4H2466-AA = target: T2, 4H2466-AA; conditions: mean of both orientations
T2 chain: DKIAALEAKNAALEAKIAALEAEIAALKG

4H249-AA = target: T3, 4H249-AA; conditions: mean of both orientations
T3 chain: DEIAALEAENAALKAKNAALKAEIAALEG

4H1765-AA = target: T4, 4H1765-AA; conditions: mean of both orientations
T4 chain: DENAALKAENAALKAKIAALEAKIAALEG

4H1930-AA = target: T5, 4H1930-AA; conditions: mean of both orientations
T5 chain: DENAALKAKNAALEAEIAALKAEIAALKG

4H1615-AA = target: T6, 4H1615-AA
T6 chain: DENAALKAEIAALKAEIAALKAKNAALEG

4H2774-AA = target: T7, 4H2774-AA; conditions: mean of both orientations
T7 chain: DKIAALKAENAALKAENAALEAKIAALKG

4H175-AA = target: T8, 4H175-AA; conditions: mean of both orientations
T8 chain: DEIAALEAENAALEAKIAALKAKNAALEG

4H3015-AA = target: T9, 4H3015-AA; conditions: mean of both orientations
T9 chain: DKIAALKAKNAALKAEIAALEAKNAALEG

4H1828-AA = target: T10, 4H1828-AA; conditions: mean of both orientations
T10 chain: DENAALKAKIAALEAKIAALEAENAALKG

4H2931-AA = target: T11, 4H2931-AA; conditions: mean of both orientations
T11 chain: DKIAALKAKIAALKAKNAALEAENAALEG

4H1821-AA = target: T12, 4H1821-AA; conditions: mean of both orientations
T12 chain: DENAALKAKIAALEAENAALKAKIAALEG

4H1650-AA = target: T13, 4H1650-AA; conditions: mean of both orientations
T13 chain: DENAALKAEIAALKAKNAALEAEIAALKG

4H_APH = target: T14, 4H_APH; conditions: mean of both orientations
T14 chain: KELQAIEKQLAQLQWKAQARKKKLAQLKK

4H2343-AA = target: T15, 4H2343-AA; conditions: mean of both orientations
T15 chain: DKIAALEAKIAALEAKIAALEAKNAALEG

4H452-AA = target: T16, 4H452-AA; conditions: mean of both orientations
T16 chain: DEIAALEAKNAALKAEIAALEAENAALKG

4H3438-AA = target: T17, 4H3438-AA; conditions: mean of both orientations
T17 chain: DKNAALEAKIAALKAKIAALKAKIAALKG

4H2165-AA = target: T18, 4H2165-AA; conditions: mean of both orientations
T18 chain: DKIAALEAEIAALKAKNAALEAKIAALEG

4H2592-AA = target: T19, 4H2592-AA; conditions: mean of both orientations
T19 chain: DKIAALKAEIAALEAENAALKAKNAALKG

4H2732-AA = target: T20, 4H2732-AA; conditions: mean of both orientations
T20 chain: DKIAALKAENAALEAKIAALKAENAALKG

4H3001-AA = target: T21, 4H3001-AA; conditions: mean of both orientations
T21 chain: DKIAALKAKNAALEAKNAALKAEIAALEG

4H56-AA = target: T22, 4H56-AA; conditions: mean of both orientations
T22 chain: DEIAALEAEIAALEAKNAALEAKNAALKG

4H3073-AA = target: T23, 4H3073-AA; conditions: mean of both orientations
T23 chain: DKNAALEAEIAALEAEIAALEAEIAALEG

4H406-AA = target: T24, 4H406-AA; conditions: mean of both orientations
T24 chain: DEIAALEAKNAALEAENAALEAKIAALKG

4H2253-AA = target: T25, 4H2253-AA
T25 chain: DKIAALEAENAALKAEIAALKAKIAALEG

GCN2_T = conditions: mean of both orientations
4H347-AA = target: T26, 4H347-AA; conditions: mean of both orientations
T26 chain: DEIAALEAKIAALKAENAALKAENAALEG

4H2124-AA = target: T27, 4H2124-AA; conditions: mean of both orientations
T27 chain: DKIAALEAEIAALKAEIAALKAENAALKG

4H_GCN4 = target: 4H_GCN4
4H_BCR = target: T28, 4H_BCR; conditions: mean of both orientations
T28 chain: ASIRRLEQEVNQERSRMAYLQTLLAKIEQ

Core_INNN-es_KEKE = target: T29, Core_INNN-es_KEKE; conditions: mean of both orientations
T29 chain: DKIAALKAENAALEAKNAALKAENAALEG

Core_INII-es_KKKK = target: T30, Core_INII-es_KKKK
T30 chain: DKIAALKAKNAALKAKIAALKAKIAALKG

4H380-AA = target: T31, 4H380-AA; conditions: mean of both orientations
T31 chain: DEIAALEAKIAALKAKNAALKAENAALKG

4H1040-AA = target: T32, 4H1040-AA
T32 chain: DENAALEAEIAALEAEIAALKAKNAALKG

4H235-AA = target: T33, 4H235-AA; conditions: mean of both orientations
T33 chain: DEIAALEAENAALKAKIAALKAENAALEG

4H1384-AA = target: T34, 4H1384-AA; conditions: mean of both orientations
T34 chain: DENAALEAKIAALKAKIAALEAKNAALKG

4H3915-AA = target: T35, 4H3915-AA; conditions: mean of both orientations
T35 chain: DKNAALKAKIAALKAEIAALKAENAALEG

4H3974-AA = target: T36, 4H3974-AA; conditions: mean of both orientations
T36 chain: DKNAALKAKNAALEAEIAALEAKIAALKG

4H341-AA = target: T37, 4H341-AA; conditions: mean of both orientations
T37 chain: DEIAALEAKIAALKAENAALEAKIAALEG

4H324-AA = target: T38, 4H324-AA; conditions: mean of both orientations
T38 chain: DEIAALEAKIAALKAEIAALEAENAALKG

4H2760-AA = target: T39, 4H2760-AA; conditions: mean of both orientations
T39 chain: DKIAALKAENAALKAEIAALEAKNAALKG

4H2604-AA = target: T40, 4H2604-AA; conditions: mean of both orientations
T40 chain: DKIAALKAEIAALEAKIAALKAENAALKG

4H432-AA = target: T41, 4H432-AA; conditions: mean of both orientations
T41 chain: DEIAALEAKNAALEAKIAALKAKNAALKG

4H2961-AA = target: T42, 4H2961-AA; conditions: mean of both orientations
T42 chain: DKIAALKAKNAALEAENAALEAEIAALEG

4H1593-AA = target: T43, 4H1593-AA; conditions: mean of both orientations
T43 chain: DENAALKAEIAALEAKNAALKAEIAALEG

4H3619-AA = target: T44, 4H3619-AA; conditions: mean of both orientations
T44 chain: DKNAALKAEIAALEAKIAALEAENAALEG

4H133-AA = target: T45, 4H133-AA; conditions: mean of both orientations
T45 chain: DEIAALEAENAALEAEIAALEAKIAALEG

4H3629-AA = target: T46, 4H3629-AA; conditions: mean of both orientations
T46 chain: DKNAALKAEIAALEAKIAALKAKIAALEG

4H2580-AA = target: T47, 4H2580-AA; conditions: mean of both orientations
T47 chain: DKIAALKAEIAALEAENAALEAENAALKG

4H3449-AA = target: T48, 4H3449-AA; conditions: mean of both orientations
T48 chain: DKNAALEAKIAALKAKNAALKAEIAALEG

4H3094-AA = target: T49, 4H3094-AA; conditions: mean of both orientations
T49 chain: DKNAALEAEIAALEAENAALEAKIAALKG

4H1262-AA = target: T50, 4H1262-AA; conditions: mean of both orientations
T50 chain: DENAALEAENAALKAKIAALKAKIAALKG

4H3049-AA = target: T51, 4H3049-AA; conditions: mean of both orientations
T51 chain: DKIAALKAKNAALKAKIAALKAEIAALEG

4H1878-AA = target: T52, 4H1878-AA; conditions: mean of both orientations
T52 chain: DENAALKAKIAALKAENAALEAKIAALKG

4H63-AA = target: T53, 4H63-AA; conditions: mean of both orientations
T53 chain: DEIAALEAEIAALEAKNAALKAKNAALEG

4H446-AA = target: T54, 4H446-AA; conditions: mean of both orientations
T54 chain: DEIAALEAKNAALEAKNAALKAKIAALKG

4H1449-AA = target: T55, 4H1449-AA; conditions: mean of both orientations
T55 chain: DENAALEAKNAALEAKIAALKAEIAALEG

4H2903-AA = target: T56, 4H2903-AA; conditions: mean of both orientations
T56 chain: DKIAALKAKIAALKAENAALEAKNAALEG

4H3777-AA = target: T57, 4H3777-AA; conditions: mean of both orientations
T57 chain: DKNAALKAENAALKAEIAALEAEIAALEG

4H1349-AA = target: T58, 4H1349-AA; conditions: mean of both orientations
T58 chain: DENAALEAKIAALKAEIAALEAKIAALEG

4H2621-AA = target: T59, 4H2621-AA; conditions: mean of both orientations
T59 chain: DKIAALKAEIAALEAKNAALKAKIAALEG

4H2947-AA = target: T60, 4H2947-AA; conditions: mean of both orientations
T60 chain: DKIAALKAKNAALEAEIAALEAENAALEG

Sequence of 4H_GCN4 (chain, as listed by the source): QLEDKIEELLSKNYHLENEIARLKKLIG

interaction score (4H2330-AA): -1.4
interaction score (4H2466-AA): -1.57
interaction score (4H249-AA): -2.1
interaction score (4H1765-AA): -1.45
interaction score (4H1930-AA): -1.07
interaction score (4H1615-AA): 1.78
interaction score (4H2774-AA): -1.47
interaction score (4H175-AA): -1.43
interaction score (4H3015-AA): -1.68
interaction score (4H1828-AA): -1.78
interaction score (4H2931-AA): -1.79
interaction score (4H1821-AA): -1.23
interaction score (4H1650-AA): -1.46
interaction score (4H_APH): -1.58
interaction score (4H2343-AA): -0.958
interaction score (4H452-AA): -1.96
interaction score (4H3438-AA): -0.739
interaction score (4H2165-AA): -1.55
interaction score (4H2592-AA): -1.27
interaction score (4H2732-AA): -1.79
interaction score (4H3001-AA): -1.81
interaction score (4H56-AA): -1.15
interaction score (4H3073-AA): -0.406
interaction score (4H406-AA): -1.66
interaction score (4H2253-AA): -1.57
interaction score (GCN2_T): -1.38
interaction score (4H347-AA): -1.38
interaction score (4H2124-AA): -1.09
interaction score (4H_GCN4): -1.57
interaction score (4H_BCR): -1.79
Binder: DENAALKAEIAALKAEIAALKAKNAALEG [4H1615-AA]

interaction score (Core_INNN-es_KEKE): 2
Binder: DEIAALEAKNAALKAENAALEAKNAALKG [Core_INNN-es_EKEK]

interaction score (Core_INII-es_KKKK): 1.29
Binder: DEIAALEAENAALEAEIAALEAEIAALEG [Core_INII-es_EEEE]

interaction score (4H380-AA): 0.307
interaction score (4H1040-AA): 0.802
interaction score (4H235-AA): -1.14
interaction score (4H1384-AA): 0.28
interaction score (4H249-AA): -0.999
interaction score (4H3915-AA): 2.34
interaction score (4H3974-AA): 0.222
interaction score (4H341-AA): -0.876
interaction score (4H324-AA): 1.68
interaction score (4H2774-AA): -0.661
interaction score (4H2760-AA): -1.46
interaction score (4H2604-AA): 0.338
interaction score (4H432-AA): -1.63
interaction score (4H2961-AA): -1.24
interaction score (4H1593-AA): -1.27
interaction score (4H3619-AA): 0.716
interaction score (4H133-AA): -1.47
interaction score (4H3629-AA): 1.28
interaction score (4H2580-AA): 1.19
interaction score (4H3449-AA): -0.935
interaction score (4H3094-AA): -1.03
interaction score (4H1262-AA): 1.1
interaction score (4H3049-AA): 1.34
interaction score (4H1878-AA): -0.752
interaction score (4H63-AA): -1.26
interaction score (4H446-AA): -1.4
interaction score (4H1449-AA): 0.618
interaction score (4H2903-AA): 1.05
interaction score (4H3777-AA): -0.948
interaction score (4H1349-AA): 0.263
interaction score (4H2621-AA): -0.66
interaction score (4H2947-AA): -1.06
Binder: DENAALEAEIAALEAEIAALKAKNAALKG [4H1040-AA]
